Source: publication PMC2225448 (Structure(London, England:1993), 2007)

Molecular target: Human SOCS4 (amino acids 274-437) (human, UniProt Q8WXH5 274-437)
Experiment: crystal structure; ternary complex coexpressed and purified; crystals at 4°C from 10% PEG6000, 2M NaCl; molecular replacement, refined to 2.5 Å
Details: both partners purified

Chain of Human SOCS4 (amino acids 274-437) (Q8WXH5 274-437): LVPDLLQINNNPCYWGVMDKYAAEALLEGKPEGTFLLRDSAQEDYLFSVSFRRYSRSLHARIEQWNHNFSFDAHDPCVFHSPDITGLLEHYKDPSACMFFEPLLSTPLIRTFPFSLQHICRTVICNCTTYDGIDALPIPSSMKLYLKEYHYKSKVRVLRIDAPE

B1: ElonginB (natural protein, human)
chain: MDVFLMIRRHKTTIFTDAKESSTVFELKRIVEGILKRPPDEQRLYKDDQLLDDGKTLGECGFTSQTARPQAPATVGLAFRADDTFEALCIEPFSSPPELPDVMKPQDSGSSANEQAVQ
- binding result: binds
